Test results: patent publication US20230071371A1 (Scripps Research, published 2023)
Bridges are numbered along the chain shown (N, C = ends). Where no end group is shown, it is not given here. [ ]: non-standard residue; d: D form. NMeR = CN[C@@H](CCCNC(=N)N)C(=O)O; hArg = N=C(N)NCCCC[C@H](N)C(=O)O; β3hR = N=C(N)NCCC[C@H](N)CC(=O)O; Nle = CCCC[C@H](N)C(=O)O; L1 = not defined here; L3 = not defined here; L4 = not defined here; L5 = not defined here

T1: GPR10 (UniProt P49683 1-370, limits assumed)
T1 sequence (looked up): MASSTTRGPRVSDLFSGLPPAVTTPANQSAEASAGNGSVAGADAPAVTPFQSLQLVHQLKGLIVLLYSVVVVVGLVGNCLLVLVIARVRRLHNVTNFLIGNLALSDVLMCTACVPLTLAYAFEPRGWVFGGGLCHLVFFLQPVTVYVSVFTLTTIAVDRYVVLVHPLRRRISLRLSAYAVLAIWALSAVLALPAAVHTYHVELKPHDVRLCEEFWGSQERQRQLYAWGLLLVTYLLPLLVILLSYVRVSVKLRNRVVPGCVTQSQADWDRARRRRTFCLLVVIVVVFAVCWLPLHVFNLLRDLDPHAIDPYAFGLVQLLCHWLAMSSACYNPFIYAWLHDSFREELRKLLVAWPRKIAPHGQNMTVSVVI


Biological target: T1, GPR10
Assay: cell-based or functional assay

Binder | GPR10 EC50 [µM]
SRAHQHSMETRTCDINPAWCTGRGIRPVGRF-NH2 (linker 13-20 via L1; reading uncertain) [Conjugate 228] | 0.04
SRAHQHSMETRTCDINPAWCTGRGIRPVGRF-NH2 (linker 13-20 via L5; reading uncertain) [Conjugate 241] | 1.5
SRAHQHSMETRTCDINPAWCTGRGIRPVGRF-NH2 (linker 13-20 via L3; reading uncertain) [Conjugate 239] | 0.017
SRAHQHSMETRTPDICPAWYTGCGIRPVGRF-NH2 (linker 16-23 via L1; reading uncertain) [Conjugate 230] | 0.029
SRAHQHSMETRTPDICPAWYTGCGIRPVGRF-NH2 (cysteine pairing not given here) [SEQ ID NO 94] | 0.07
SRAHQHSMETRTCDINPAWCTGRGIRPVGRF-NH2 (linker 13-20 via L4; reading uncertain) [Conjugate 240] | 0.63
SRAHQHSMETRTPDINPAWCTGRGIRCVGRF-NH2 (cysteine pairing not given here) [SEQ ID NO 96] | 0.92
SRAHQHSMETRTPDCNPAWYTCRGIRPVGRF-NH2 (linker 15-22 via L3; reading uncertain) [Conjugate 242] | 0.0061
SRAHQHSMETRTPDCNPAWYTCRGIRPVGRF-NH2 (linker 15-22 via L1; reading uncertain) [Conjugate 229] | 0.01
SRAHQHSMETRTPDINPAWCTGRGIRCVGRF-NH2 (linker 20-27 via L1; reading uncertain) [Conjugate 232] | 0.13
SRAHQHSMETRTPDICPAWYTGCGIRPVGRF-NH2 (linker 16-23 via L5; reading uncertain) [Conjugate 247] | 2.8
SRAHQHSMCTRTPDICPAWYTGRGIRPVGRF-NH2 (cysteine pairing not given here) [SEQ ID NO 91] | 0.041
SRAHQHSMETRTPDINPCWYTGRGCRPVGRF-NH2 (linker 18-25 via L5; reading uncertain) [Conjugate 250] | > 1
SRAHQHSMETRTPDICPAWYTGCGIRPVGRF-NH2 (linker 16-23 via L4; reading uncertain) [Conjugate 246] | 0.36
SRAHQHSMCTRTPDICPAWYTGRGIRPVGRF-NH2 (linker 9-16 via L1; reading uncertain) [Conjugate 227] | 0.085
CRAHQHSCETRTPDINPAWYTGRGIRPVGRF-NH2 (linker 1-8 via L5; reading uncertain) [Conjugate 235] | 0.33
SRAHQHSMETRTPDINPCWYTGRGCRPVGRF-NH2 (linker 18-25 via L1; reading uncertain) [Conjugate 231] | 0.018
SRAHQHSMETRTPDCNPAWYTCRGIRPVGRF-NH2 (cysteine pairing not given here) [SEQ ID NO 93] | 0.017
SRAHQHSMETRTPDCNPAWYTCRGIRPVGRF-NH2 (linker 15-22 via L4; reading uncertain) [Conjugate 243] | 0.08
SRAHQHSMETRTPDCNPAWYTCRGIRPVGRF-NH2 (linker 15-22 via L5; reading uncertain) [Conjugate 244] | 0.23
SRAHQHSMETRTPDINPCWYTGRGCRPVGRF-NH2 (linker 18-25 via L3; reading uncertain) [Conjugate 248] | 0.0075
SRAHQHSMETRTPDINPCWYTGRGCRPVGRF-NH2 (linker 18-25 via L4; reading uncertain) [Conjugate 249] | > 1
SRAHQHSMETRTPDICPAWYTGCGIRPVGRF-NH2 (linker 16-23 via L3; reading uncertain) [Conjugate 245] | 0.023
SRAHQHSMETRTPDINPCWYTGRGCRPVGRF-NH2 (cysteine pairing not given here) [SEQ ID NO 95] | 0.033
SRAHQHSMETRTCDINPAWCTGRGIRPVGRF-NH2 (cysteine pairing not given here) [SEQ ID NO 92] | 0.018

Biological target: T1, GPR10
Assay: cell-based or functional assay
Remark: another data set of the same source

Binder | GPR10 EC50 [µM]
SRAHQCS[Nle]ETRTCDINPAWYTG[NMeR]GIRPVGRF-NH2 (linker 6-13 via L4; reading uncertain) [Conjugate 261] | 0.12
SRAHQCS[Nle]ETRTCDINPAWYTG[NMeR]GIRPVGRF-NH2 (cysteine pairing not given here) [SEQ ID NO 99] | 0.044
SRAHQCS[Nle]ETRTCDINPAWYTGRGIRPVG[NMeR]F-NH2 (linker 6-13 via L1; reading uncertain) [Conjugate 254] | 0.1
SRAHQCS[Nle]ETRTCDINPAWYTG[β3hR]GIRPVGRF-NH2 (linker 6-13 via L3; reading uncertain) [Conjugate 256] | 0.0051
SRAHQCS[Nle]ETRTCDINPAWYTGRGIRPVG[NMeR]F-NH2 (cysteine pairing not given here) [SEQ ID NO 102] | 0.1
SRAHQCS[Nle]ETRTCDINPAWYTGRGIRPVG[β3hR]F-NH2 (cysteine pairing not given here) [SEQ ID NO 101] | > 0.2
SRAHQCS[Nle]ETRTCDINPAWYTG[NMeR]GIRPVGRF-NH2 (linker 6-13 via L1; reading uncertain) [Conjugate 253] | 0.034
SRAHQCS[Nle]ETRTCDINPAWYTGRGIRPVG[hArg]F-NH2 (cysteine pairing not given here) [SEQ ID NO 100] | > 0.2
SRAHQCS[Nle]ETRTCDINPAWYTG[β3hR]GIRPVGRF-NH2 (linker 6-13 via L4; reading uncertain) [Conjugate 260] | 0.06
SRAHQCS[Nle]ETRTCDINPAWYTG[β3hR]GIRPVGRF-NH2 (cysteine pairing not given here) [SEQ ID NO 98] | 0.013
SRAHQCS[Nle]ETRTCDINPAWYTGRGIRPVG[NMeR]F-NH2 (linker 6-13 via L4; reading uncertain) [Conjugate 262] | 0.28
SRAHQCS[Nle]ETRTCDINPAWYTG[β3hR]GIRPVGRF-NH2 (linker 6-13 via L1; reading uncertain) [Conjugate 252] | 0.016
SRAHQCS[Nle]ETRTCDINPAWYTG[β3hR]GIRPVGRF-NH2 (linker 6-13 via L5; reading uncertain) [Conjugate 264] | 0.081
SRAHQCS[Nle]ETRTCDINPAWYTG[NMeR]GIRPVGRF-NH2 (linker 6-13 via L3; reading uncertain) [Conjugate 257] | 0.0088
SRAHQCS[Nle]ETRTCDINPAWYTG[NMeR]GIRPVGRF-NH2 (linker 6-13 via L5; reading uncertain) [Conjugate 265] | 0.16
SRAHQCS[Nle]ETRTCDINPAWYTG[hArg]GIRPVGRF-NH2 (cysteine pairing not given here) [SEQ ID NO 97] | 0.017
SRAHQCS[Nle]ETRTCDINPAWYTGRGIRPVG[NMeR]F-NH2 (linker 6-13 via L3; reading uncertain) [Conjugate 258] | 0.01
